We go through nine molecules from patent US20260014269A1 (NECTIN THERAPEUTICS, published 2026).

Experiment [1] addresses T1, Nectin-4 on MDA-MB-468 cells (human, UniProt Q96NY8 32-510).
T1 construct: whole, on cells; also called Nectin-4 (on-cell)
T1 sequence (looked up): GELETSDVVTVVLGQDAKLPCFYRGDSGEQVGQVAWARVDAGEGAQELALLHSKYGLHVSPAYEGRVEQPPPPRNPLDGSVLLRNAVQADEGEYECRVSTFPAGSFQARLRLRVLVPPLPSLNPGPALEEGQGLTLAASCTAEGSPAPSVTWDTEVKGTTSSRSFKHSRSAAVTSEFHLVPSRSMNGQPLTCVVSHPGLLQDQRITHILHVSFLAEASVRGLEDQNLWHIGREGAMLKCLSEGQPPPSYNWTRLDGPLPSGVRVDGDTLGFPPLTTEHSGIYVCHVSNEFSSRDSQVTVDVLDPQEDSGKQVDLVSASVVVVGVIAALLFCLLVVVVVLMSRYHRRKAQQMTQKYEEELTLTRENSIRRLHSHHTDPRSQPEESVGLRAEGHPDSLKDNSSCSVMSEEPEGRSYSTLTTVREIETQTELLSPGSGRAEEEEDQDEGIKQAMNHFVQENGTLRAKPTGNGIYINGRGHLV
Kind of experiment: flow cytometry staining of MDA-MB-468 cells, anti-human IgG Fab Alexa Fluor 647 detection. A general note: In flow cytometry, cells or beads pass a laser one at a time.

Experiment [2] has as its target T1, Nectin-4 on MDA-MB-468 cells. Description: flow cytometry on MDA-MB-468 cells, 3-fold dilutions from 3 ug/ml, detection with Alexa Fluor 647 Fab goat anti-human IgG (H+L); y axis % Bound. As to the method: Binding was evaluated on MDA-MB-468 cells. Briefly, 5*10+ cells per well were stained using either PADCEV or NTX1105 conjugated to MMAE at the same DAR as PADCEV. The ADCs were added at concentrations starting 3 μg/ml using 3-fold dilutions. […] After 72 hours, the assay was harvested and tumor cell killing was evaluated using CellTiter-Glo® 2.0 Cell Viability Assay-(Promega G9242).

Experiment [3] deals with T2, recombinant human Nectin-4 (Acro Biosystems) (human, UniProt Q96NY8 32-349).
T2 construct: Bought recombinant antigen used as analyte in SPR; also called PVRL4
T2 sequence (looked up): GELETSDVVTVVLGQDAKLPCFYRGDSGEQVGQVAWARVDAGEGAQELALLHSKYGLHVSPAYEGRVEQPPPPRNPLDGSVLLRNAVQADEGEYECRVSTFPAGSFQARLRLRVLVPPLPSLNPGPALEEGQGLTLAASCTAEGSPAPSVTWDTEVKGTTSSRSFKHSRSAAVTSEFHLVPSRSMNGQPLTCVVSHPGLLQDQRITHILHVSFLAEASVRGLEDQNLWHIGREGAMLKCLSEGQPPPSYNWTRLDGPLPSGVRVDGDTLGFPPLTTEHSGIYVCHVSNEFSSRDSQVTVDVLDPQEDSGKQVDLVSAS
Description: SPR, Biacore T200 single cycle kinetics at 25 C, IgG from culture supernatant, Nectin-4 as analyte. How it is done:
(§1) In order to assess the binding of all of the variants to human or cynomolgus Nectin-4 antigen and select lead humanized IgGs with the closest affinity to the chimeric (VH0/Vκ0) antibody, single cycle kinetic was performed on supernatants from transfected cell cultures. Kinetic experiments were performed at 25° C. on a Biacore T200 running Biacore T200Control software V2.0.1 and Evaluation software V3.0 (Cytiva, Marlborough, USA). Single cycle kinetic data was obtained using recombinant human (Acro Biosystems, Newark, USA) or cynomolgus Nectin-4 (Acro Biosystems, Newark, USA) as the analyte injected at a flow rate of 40 μl/min to minimize any potential mass transfer effects. A four point, two-fold dilution range from 1.25 nM to 10 nM of antigen in running buffer was used without regeneration between each concentration. The association phases were monitored for 150 seconds for each of the four injections of increasing concentrations of antigen and a single dissociation phase was measured for 250 seconds following the last injection of antigen (in order to improve fit the dissociation was cropped to 175 seconds for human Nectin-4). Regeneration of the sensor chip surface was conducted using a single injection of 3 M MgCl₂. Based on relative KD from Biacore single cycle kinetics analysis on supernatants, six humanized variants (VH4/Vκ1, VH4/Vκ3, VH4/Vκ4, VH4/Vκ5, VH5/Vκ4 and VH5/Vκ5) were selected as lead IgGs for scaled-up production and purification.
(In general: SPR reads the build-up and loss of mass on a sensor chip optically.)

In experiment [4] the target is T3, recombinant cynomolgus Nectin-4 (Acro Biosystems) (cynomolgus, UniProt A0A2K5WES1 32-349).
T3 construct: Bought recombinant antigen used as analyte in SPR; also called Cyno Nectin-4
T3 sequence: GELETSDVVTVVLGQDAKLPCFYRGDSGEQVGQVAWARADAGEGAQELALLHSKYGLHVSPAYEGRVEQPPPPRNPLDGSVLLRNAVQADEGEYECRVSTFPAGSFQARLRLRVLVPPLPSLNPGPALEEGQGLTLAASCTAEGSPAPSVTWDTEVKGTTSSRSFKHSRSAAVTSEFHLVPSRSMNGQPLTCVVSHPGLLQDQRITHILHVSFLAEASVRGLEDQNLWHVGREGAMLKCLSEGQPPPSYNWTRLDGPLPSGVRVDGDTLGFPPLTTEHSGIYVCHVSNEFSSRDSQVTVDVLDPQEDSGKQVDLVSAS
Described as above. As to the method: as §1

By EC50 is commonly meant the midpoint of the concentration-response curve. A higher EC50 goes with weaker potency. In experiment [1], Enfortumab-vedotin (PADCEV) (antibody) displayed an EC50 of 0.01 nM and a fold stronger EC-50 than NTX1105 conjugated to MMAE of 20 fold.

B1: NTX1105 (H4K5) ADC, conjugated to MMAE at the same DAR as PADCEV (antibody, V domains shown)
VH: QVQLVQSGSELKKPGASVKVSCKASGYTFTSYYIHWVRQAPGQGLEWIGWIYPGNVNTKYNERFKGRVTITADKSTNTAYMELSSLRSEDTAVYYCARSNPYVMDYWGQGTSVTVSS
VL: DIQMTQSPSTLSASVGDRVTITCRASQSVNNDVAWYQQKPGKAPKLLMYYASNRFTGVPDRFSGSGYGTDFTLTISSLQAEDVAVYFCQQAYRSPYTFGQGTKLEIK
notes: also called NTX1105-MMAE; NTX1105-MC-VC-PAB-MMAE DAR4
For orientation: EC50 (read off the curve) means the midpoint of the concentration-response curve. Consider B1, for which the “EC50 (read off the curve)” value in experiment [2] is approximately 0.01 µg/mL.

B2: NTX1105 humanized variant VH4/Vκ4 (antibody, V domains shown)
VH: QVQLVQSGSELKKPGASVKVSCKASGYTFTSYYIHWVRQAPGQGLEWIGWIYPGNVNTKYNERFKGRVTITADKSTNTAYMELSSLRSEDTAVYYCARSNPYVMDYWGQGTSVTVSS
VL: DIQMTQSPSTLSASVGDRVTITCRASQSVNNDVAWYQQKPGKAPKLLMYYASNRFTGVPDRFSGSGYGTDFTLTISSLQAEDLAIYFCQQAYRSPYTFGQGTKLEIK
notes: Humanized IgG
The Kd is the concentration at which binding is half-saturated. Take B2: the Kd is 18 nM in experiment [3] and 21.3 nM in experiment [4].

B3: NTX1105 humanized variant VH4/Vκ5 (antibody, V domains shown)
VH: QVQLVQSGSELKKPGASVKVSCKASGYTFTSYYIHWVRQAPGQGLEWIGWIYPGNVNTKYNERFKGRVTITADKSTNTAYMELSSLRSEDTAVYYCARSNPYVMDYWGQGTSVTVSS
VL: DIQMTQSPSTLSASVGDRVTITCRASQSVNNDVAWYQQKPGKAPKLLMYYASNRFTGVPDRFSGSGYGTDFTLTISSLQAEDVAVYFCQQAYRSPYTFGQGTKLEIK
notes: also called NTX1105 (H4/k5); H4K5
As for B3, the Kd in experiment [3] was determined as 12.2 nM; in experiment [4], 13.7 nM.

B4: NTX1105 humanized variant VH4/Vκ3 (antibody, V domains shown)
VH: QVQLVQSGSELKKPGASVKVSCKASGYTFTSYYIHWVRQAPGQGLEWIGWIYPGNVNTKYNERFKGRVTITADKSTNTAYMELSSLRSEDTAVYYCARSNPYVMDYWGQGTSVTVSS
VL: DIQMTQSPSTLSASVGDRVTITCKASQSVNNDVAWYQQKPGKAPKLLMYYASNRFTGVPDRFSGSGYGTDFTLTISSLQAEDLAIYFCQQAYRSPYTFGQGTKLEIK
notes: Humanized IgG
With B4, the Kd was 15.5 nM in experiment [3] and 19.4 nM in experiment [4].

B5: NTX1105 humanized variant VH5/Vκ4 (antibody, V domains shown)
VH: QVQLVQSGSELKKPGASVKVSCKASGYTFTSYYIHWVRQAPGQGLEWMGWIYPGNVNTKYNERFQGRVTITADKSTSTAYMELSSLRSEDTAVYYCARSNPYVMDYWGQGTSVTVSS
VL: DIQMTQSPSTLSASVGDRVTITCRASQSVNNDVAWYQQKPGKAPKLLMYYASNRFTGVPDRFSGSGYGTDFTLTISSLQAEDLAIYFCQQAYRSPYTFGQGTKLEIK
notes: Humanized IgG
As for B5, the values for the Kd in experiment [3] and in experiment [4] were 17.7 nM and 19.2 nM, respectively.

B6: NTX1105 humanized variant VH5/Vκ5 (antibody, V domains shown)
VH: QVQLVQSGSELKKPGASVKVSCKASGYTFTSYYIHWVRQAPGQGLEWMGWIYPGNVNTKYNERFQGRVTITADKSTSTAYMELSSLRSEDTAVYYCARSNPYVMDYWGQGTSVTVSS
VL: DIQMTQSPSTLSASVGDRVTITCRASQSVNNDVAWYQQKPGKAPKLLMYYASNRFTGVPDRFSGSGYGTDFTLTISSLQAEDVAVYFCQQAYRSPYTFGQGTKLEIK
notes: Humanized IgG; also called H5K5
With B6, the results for the Kd in experiment [3] and in experiment [4] were 11.5 nM and 12.7 nM, respectively.

B7: NTX1105 humanized variant VH4/Vκ1 (antibody, V domains shown)
VH: QVQLVQSGSELKKPGASVKVSCKASGYTFTSYYIHWVRQAPGQGLEWIGWIYPGNVNTKYNERFKGRVTITADKSTNTAYMELSSLRSEDTAVYYCARSNPYVMDYWGQGTSVTVSS
VL: SIVMTQSPSFLLASAGDRVTITCKASQSVNNDVAWYQQKPGLAPELLMYYASNRFTGVPDRFTGSGYGTDFTLTISSLQAEDLAIYFCQQAYRSPYTFGQGTKLEIK
notes: Humanized IgG
B7: the Kd turned out to be 15.4 nM in experiment [3] and 19.3 nM in experiment [4].

B8: NTX1105 (VH0/Vκ0) parental chimeric anti-Nectin-4 antibody, clone-11 (VH0/Vκ0)-hIgG1 (antibody, V domains shown)
VH: QVQLQQSGPELVKPETSVKISCKASGYTFTSYYIHWVKQRPGQGLEWIGWIYPGNVNTKYNERFKGKATLTADKSSNTAHMQLTSLTSEDSAVYFCARSNPYVMDYWGQGTSVTVSS
VL: SIVMTQTPKFLLVSAGDRVTITCKASQSVNNDVAWYQQKPGLSPELLMYYASNRFTGVPDRFTGSGYGTDFTFTISSVQAEDLAIYFCQQAYRSPYTFGGGTKLEIQR
notes: Tested from supernatants of transfected cell cultures; also called chimeric antibody; parental mAb
Take B8: the Kd in experiment [3] is 10.9 nM; in experiment [4], 12.1 nM.
